B1: "Na(+)/H(+) exchange regulatory cofactor NHE-RF1" (Oryctolagus cuniculus (Rabbit)), Q28619 (parent)
chain: MSADAAAGAPLPRLCCLEKGPNGYGFHLHGEKGKVGQYIRLVEPGSPAEKAGLLAGDRLVEVNGENVEKETHQQVVSRIRAALNAVRLLVVDPDTDEQFRKLGVQIRGELLRAQAGPEQAGPPAAPGEQGPAGENEPREVEKSHPERRELRPRLCAMKKGPNGYGFNLHSDKSRPGQFIRAVDPDSPAEASGLREQDRIVEVNGVCVEGKQHGDVVTAIKAGGDEAKLLVVDKETDEFFKKCKVVPSSEHLNGPLPEPFTNGEIQKNNPETLAPAASESPRPALARSASSDTSEELASQDSPKKEDSTAPSSTSSSSDPILDFSISLAVAKERAHQKRSSRRAPQMDWSEKKELFSNL

Variants of: B1
Conditions: with Grk6, O70293-1
Chain of Grk6, O70293-1 (O70293 whole entry): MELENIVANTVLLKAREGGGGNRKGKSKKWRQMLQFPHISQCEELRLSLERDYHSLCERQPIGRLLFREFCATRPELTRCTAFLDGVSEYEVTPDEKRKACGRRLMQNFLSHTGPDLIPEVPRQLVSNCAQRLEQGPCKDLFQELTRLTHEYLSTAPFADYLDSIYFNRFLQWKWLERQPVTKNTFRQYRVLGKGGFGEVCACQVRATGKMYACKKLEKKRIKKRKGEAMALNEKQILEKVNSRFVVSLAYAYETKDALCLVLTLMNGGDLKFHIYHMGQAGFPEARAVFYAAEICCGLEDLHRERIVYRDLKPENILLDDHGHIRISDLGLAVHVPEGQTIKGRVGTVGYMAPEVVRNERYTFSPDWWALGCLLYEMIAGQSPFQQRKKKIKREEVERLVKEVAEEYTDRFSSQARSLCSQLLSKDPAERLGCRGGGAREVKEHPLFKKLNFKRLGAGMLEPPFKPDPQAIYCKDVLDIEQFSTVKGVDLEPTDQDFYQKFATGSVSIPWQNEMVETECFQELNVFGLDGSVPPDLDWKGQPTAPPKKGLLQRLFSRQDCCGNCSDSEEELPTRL

Row | Variant | effect of a mutation on the interaction
1 | S289A | disrupting interaction

Variants of: B1
Conditions: with Grk6, O70293-1
Remark: another data set of the same source

Row | Variant | effect of a mutation on the interaction
2 | K158A | decreasing interaction
3 | K159A | decreasing interaction

Source: IntAct's records for PubMed 10446210
